# Measured values: patent publication US20240026407A1, “MODIFICATION OF SAPONINS” (GLAXOSMITHKLINE BIOLOGICALS SA, priority 2020, published 2024)
# B1: 1042 (protein, listed as Streptomyces scabiei)
# chain: MNPTAPAEQTPTDITVSVTGLRTADDSGLVATAHAMPRLSWSLTGTRPGILQHAYEIQVSGAPSFDDTTSSGQVESGTVTDHPWPAQPLSSRETRHWRVRVRTDRGWTRWSDPARVEGALLDAVDWAARPVHVPSDRGRPSPGPVPLLRREFHLPAEPVSARLYVTSLGVHRTTLNGRPVSADLLEPGWTSYPDRLLYATYDVTGLLRPGPNALAAAVGDGWFRGHLTWHKNRDVYGDTTGLLAQLEVDLTDGTRVTVITDGRWKGGYGDLLSADLYDGCERDLRAEPHGWQLPGFADDGWEPVAVLPLPEGLGQRAHPPVRVVRTVRPRLRTLADGTIAVDAGENVTGRLRIRADGRPGGTVTVRHAEVLDGDGRLLTSILRGARATDRYTLAEGPADLTPEFTFHGFRYAEIDASPDVSVEAVEVEVVAGDLRRIGEFHCSDERVNTLYANVVRSQRGNFLAVPTDCPQRDERLGWTGDIMAFAPTACATFDSASFLDSRLTDLRIQQRPDGAVPMVVPDVPLGELPPAELPFAGAAAGWGDAATVVPAALFEAYGQPHLLERHYTAMRAWVEFTVAHLDEDGTWSGNAQLGDWLDPAAPPENPAAATTDSGYVATAFVAHSARLLADAARELGFPEDADRYTALHRRTAEAAWRKWGDHARTTQTGCALALEFGIAPAGERAEVGKALASLVRANGGRIATGFLGTPFVLPALGDTGHVAEAYELLLNPECPGWLHQVSRGATTMWERWDAIGPDGTVDVENAGTMLSFNHYAYGAVASWLYRSVAGLRPASPGYRTLDIAPRPGATLTSAEAAVDTPYGTASVAWSIGDGSLTVRAVLPPGTTGRFSAPEGWTCTEPVDALASGSHVLSLRPLTRP
# B2: 1023 (protein)
# chain: MNLFLSIFLFCSPLFLLGQSELNYPELLYPPQAIKANWVSHPDIQGGEDRIVLFRNEWMVDDPSEAFIINISADNHYFLYVNGNLVTHGPQLSDIRHWKYETIDLKTYLKTGKNLIAIKVVNYGKRRFYGMQSIFTSLMVNGATENAKVLNTSGTDDGWKCSIDDSYRALEVNWRGGGPKSIVGGFYANNPTDFVDKNHYPTDWEQPDFDDSDWVDTQFFEGASSMGGSMAYLLEPRNLPLLTWEKEGIGHTVRTSDIDVSEFPVSGKTVVPEHKKIRFLIDQKYVTNGFPELIFSKGKNAHIKIKYAENLFGPKNTKGDRNIIKGKELLGYYDHVVSNGKERQKFTPNWMRTFRFVEFEIETKGQELVLDSFSNYRSRTHIPSIARFSSNNETYNAIFDICKRTVDICTQDYFLSDAYYETMQYVGDTKIHALLWQAMSGNLAHTKNAIEQFHRSRDADGNILGAYPLRSTFIYPTYSLVWVDMVYDYYQLTNDTDFINTYKDGIIHTLAGFEKNMNELNLVNETQYRYFVDWYTGPNNGGGTATKNNGKNSAVVSLHYVHALQNAARLFKAIGDKHTADTYLDRATAIKSSVYKLCFDPNKNIFAERPDKTVYDQHTNIMAVLTDAIAESEQKALLSNILNDPKLLQATYYYRYYLFEAIKKVGAPELFDLAQRPWQAMIDNHMTTTLERFESDKKPTRSEVHPWSASPAYFYFNYLAGIKSVKNDFQEIEIAPVFGILEDMEGLLPTSKGNILFHLKKIRSKLSAEIIVPKEMSGELVWNEKHIPLKHGQHTYILK
# modifications: Zobellia galactanivorans
# B3: 1036 (protein, listed as Bacteroides cellulosilyticus)
# chain: MNRYILFFFLILSTLTTLRAQQSRLVEVGNGYSQTSVNTTVFRNNSLVTQGDEQYISYYDGDGYLVLGKRKLDSDQWTLKRTQYKGNVKDAHNIISMMLDGEGYLHLSFDHHGHKLNYCRSTAPYTLELGDKEPMTGVDEGNVTYPEFYPLNGGDLLFVYRSGSSGRGNLVMNHYSVKEKKWNRVQDVLIDGEDQRNAYWQLYVDEQGTIHLSWVWRETWHVETNHDLCYARSYDNGVTWYKANGKKYDLPIRYNNAEYACRIPQNSELINQTSMSADASGNPYIATYWRDPDSEVPQYRIVWHDGQMWHNRQVSNRHTPFSLKGGGTKMIPIARPRIVVDGGEIFYIFRDEERGSRVSLAHAAAVGVGKWTFTDLTNFPVDAWEPSHDTELWKQKRRLHLFVQHTKQGDGERRVEFAPQPVYVLEVVKPKGD
# B4: 1008 (protein, listed as Pedobacter heparinus)
# chain: MNLKTTGIVLVLSTIVCFPCIAQKNLEQSFKVTPDTIQTSVYWYWMSDNISKDGVVKDLYAMKSAGINRAFIGNIGYETTPYGKVKLFSAEWWDIMHTALKTATNLNIEIGVFNSPGWSQSGGPWVKPAQAMRYLASTKANFVGPKQLNVQLEKPKGYFQDVRVIAYKTPKAYGNSIAVHKPKLSSSISVQNINNLIDGSENTTVDIPATESITIDLETSSSFTARSLVVYPAHKGLNVNVELQVKKNKEYVSVKTFSVNRTNSNLHVGFKPYGPVAVSIPPTIGHSFRLVFGKSGGFGLAEVVLSQTPVVESYTEKTLAKMFQSPLPYWNEYQWPDQPLIDDLSLVIDPKTVIDITTFMNAEGQLKWDLPAGNWTIMRTGMLPTGVKNGPASPEGTGLEIDKMSKEHVANHFDAFMGELLRRIPAADRKTWKVVVQDSYETGGQNWTDDMIEKFKASFHYDPLPYLPVIQGEVVGDQNQSDRFLWDLRRFIADRVAYDYVGGLRDISHKHGLTTWLENYGHWGFPGEFLQYGGQSDEIGGEFWSEGELGNIENRAASSAAHIYGKTKVSAESFTAGDKPYQRYPYIMKQRGDRFFTEGINNTLLHLFIQQPSEDKVPGINANFGNEFNRHNTWFSYIDLFTGYLKRTNFMLQQGKYVADVAYFIGEDAPKMTGITDPALPAGYSFDYINAEVIQTRMKVKDGRMVLPDGMSYKLLVLPKLKTMRPELLAKIKELVAQGANILGPAPERSPSLANFPEADAKVKRMVTELWGNVNGTTIKTRKLGKGTIMSGMDMKLALNALNILPDFKTNTTDPVLFIHRSGPQAELYFISNQSEKQITFSPTFRSVDMQPELWDPVTGKTRVLSELSANGSSTTIPLTLEPLQSIFVVFRNPLVASPIRAINFPEAKTIEEINGPWKVTFNSQMRGPEKPVMFDTLIDWTKRPEESIKYYAGTAVYSNSFRATKPVKGERIYLYFSEVSVMAKVKVNGTDVGGMWTAPWRVDITDAIISGVNTLDISVVNNWVNRLVGDSKLPEAKRKTWTNNNPYTPDSKLVPSGLTGKVVVKTIKY
# B5: 1016 (protein, listed as Olsenella profusa)
# chain: MRATNLTVACLTNPLGIDVRCPELAWIDEDGLSQSAYQVECKDGAGATLWDTGKVASASMRIAWPGAALASRERVTWRVRLWDDGDACGPWSEFASIEEGLLSADDWCARWISGNYDVPTPRAGALGNFRQMVAAMRPASPDQVVTEPILEGRYPVDCFCRAFVVGKAPVRARLYITACGLYEARIDGEKVGDLCMAPGHTDYRKRVQYQTYDVTAALATGAHELTVQLADGWYRGSCGAWGLLNQYGTQTKLLAQLEVTYADGHVDCVATDTDWQWSGDGPILFADNKDGEMVDATRAPSYAGHARDARHDVAPTASNNVPITMHERFSPAPALAPNGRLLFDLGQNIAGWVELDFDAHESQHVLLRCGEMLDADGNLTLKNIQCSREGFATPLQQVEYVCREGHNHYRTTFCVFGFRYVEVETNVQLGEGSLTAIALYSDMRQTGSFECSNELLNRFFESTVWSTKGNSLDVPTDCPTRERHGWSGDAQIFFETLSYLFDCRSFERKWLHDLFDWQKRDGRLPQVAPAGGVDSYMRFLDGSVGWADAGILIPYRYWRHYGDASVLAELYDGMRRYAEFMIRRCGRRGPFSKRVGIHGEAKKYLVNMGQCYGEWAEPADVHKMDWKDTVAPHPEVATAYTDYVLGCMAQIARELGHEEDEARYRQYSEGCRLAYQELSRLPEFSLDTDRQARLVRPLAFGLLDPQQTAYARKRLVKACESYGWRLGTGFLSTPLILDVLAKYDLDAAYRLLENEEMPGWLFMPKMGATTVWESWEGTQAQGGIASLNHYSKGAVCAWLFRVMCGIAPDGERHVTVAPRPGGRFAYAKAGYESPCGFVGCGWQRVEDGWRFAVEVPANCAATVVLPDGSTREVGAGVHEFECVARAAREG
# B6: 1034 (protein, listed as Paenibacillus mucilaginosus)
# chain: MSSTQTLRGRFDDPPAEYRAAPFWAWNDALREEEVLRQIGEMKEGGMGGFFIHSRDGLETEYMGTEWMKLVRAAVEEAEAQGMQAWLYDEDRWPSGFAGGLVQARGGDDYRAKGLTLEVVPAEKEGSGRLAERLADGAPVALFRAVIAERSLLSCTRLDLQVMFGSRMEAAAAAENTLLPPILEPQQEQHQDHETVYLLFRVEVSERSEWFNGEAPPDNLNPDTVRTFIELTYEAYEREVGGSFGSAVRGVFTDEPSIHDRHCRFTPGRAWLPWSGSFPAFYRERRGSDVLDTAPYLFFDGSLSPQARHDYWRTVTERFSEAYSGQIGEWCGSRGLAFTGHYLWENNLGTATRVCGAVMPNYRYQHVPGIDMLGEQTNETITVKQCTSVAHQYGRKVVLSETYGCTGWGFTFEGQRWVGDFQYVLGVNLRSQHLALYSIKGCRKRDYPPVFHYNTSWWKFSRVIEDYYARLSAVLTEGRPIRDVLVLHPSTTAWSMVGTGPYGFPARGKDRDVSAANRYGHEFNAFLRGLLGAHYDFDLGDEIILSEIGSVRQTEQTARLAVGMAEYRTVVLPEIRTMLRSTFLLLTGFLEAGGRVVAVGPPAELLEGRPAPELSRLYGHPGLTVVPDGAAAAAALESFLPRRVSIRHQAPQHTEPAEADKMLYMLQKADNRRVLFIVNNDREEEQQVTITLEGEGLLEEWNALTGEVTDVLVRRSQEGLLEFDASFGPADSKLYVLHTDRAPETGLNASPASEAPLLLVDPGTIRMELLQEPAGFTRTAPNALTLDRCSYRLRDGDWSGEMDVWQAQRAVREALGMRQVYGNGLEQRYRWVHEPHPGDGTPAAFRFDFEVTDVPEGEIHLVVESAGEYELGLNGNPVPGVPDGWFLDRSFDRVPLSGLRAGRNELVLSCRYHQRMEVEDLYLTGDFGVDEGRRITREPEKLQLGDWCLQGYPHYAGSMVYRFTVDGGLTPGGPAWLELGSFQAVTAEVRINRETAGHVPWRAANRLDISGRLRQGENLIEVEVMGSPRNLLGPFHHTSGDPSITSWSSFRKEGGDYSPAYRLRPYGLFGGIRLYRVQEQGGKGG
# Assays:
# Assay type in all cases: biochemical, Quillaja saponaria
# [1] = Experiment 6-1: specificity of rhamnosidases towards other rhamnose residues (C3 saccharide rhamnose, C28 saccharide rhamnose); settings: TBE 2%, pH 7.5, 30 degC, 18 h; LCMS/MS; negative controls 0.18, 0.17
# [2] = Experiment 6-1: screening of rhamnosidases for derhamnosylation of saponins in treated bark extract (2%), desglucosyl-QS-17 2134 to QS-21 1988 (PAR %); settings: TBE 2%, pH 7.5, 30 degC, 18 h; TIC peak area ratio percent, LCMS/MS; negative controls 2.719, 2.158
# [3] = Experiment 6-1: screening of rhamnosidases for derhamnosylation of saponins in treated bark extract (2%), QS-17 2310 to QS-18 2164 (PAR %); settings: TBE 2%, pH 7.5, 30 degC, 18 h; TIC peak area ratio percent, LCMS/MS; negative controls 3.061, 2.429
# [4] = Experiment 6-1: screening of rhamnosidases for derhamnosylation of saponins in treated bark extract (2%), QS-17 2296 to QS-18 2150 (PAR %); settings: TBE 2%, pH 7.5, 30 degC, 18 h; TIC peak area ratio percent of rhamnosylated starting saponin to derhamnosylated product, LCMS/MS; negative controls 4.876, 5.225
Molecule,ratio PP/QS-21 [1],Peak75 (PAR %) [2],Peak57 (PAR %) [3],QS-17 (PAR %) [4]
B1,0.18,2.599%,3.383%,4.871%
B2,0.17,2.120%,2.889%,4.916%
B3,0.16,2.444%,2.852%,4.834%
B4,0.17,2.538%,2.658%,4.834%
B5,0.18,2.498%,3.326%,4.872%
B6,0.17,2.389%,3.034%,4.827%
